The values below come from paper PMC10873324, “High-throughput screening assay for PARP-HPF1 interaction inhibitors to affect DNA damage repair” (Scientific Reports, 2024).

First the molecules themselves.
B1: CFP-PARP2 (mCerulean fused to the N-terminus of the PARP2 ART domain) (domain or fragment, human, UniProt Q9UGN5-1 356-583, looked up)
chain: HPLDQHYRNLHCALRPLDHESYEFKVISQYLQSTHAPTHSDYTMTLLDLFEVEKDGEKEAFREDLHNRMLLWHGSRMSNWVGILSHGLRIAPPEAPITGYMFGKGIYFADMSSKSANYCFASRLKNTGLLLLSEVALGQCNELLEANPKAEGLLQGKHSTKGLGKMAPSSAHFVTLNGSTVPLGPASDTGILNPDGYTLNYNEYIVYNPNQVRMRYLLKVQFNFLQLW
notes: Construct order: His6 tag-CFP-TEV protease site-ART domain; source: E. coli BL21(DE3), purified (Ni-NTA IMAC, SEC); not shown: mCerulean (CFP), N-terminal, kept

The target of experiment [1] is T1, PARP2 (Homo sapiens, UniProt Q9UGN5). The experiment can be described thus: FRET PARP2-HPF1 interaction inhibition (olaparib present); nanoDSF shift of the PARP2 ART domain ([…] to […] °C), none for HPF1. The experiment is classed as binding. The arrangement: PARP2 ART domain (CFP-fused in FRET); with HPF1. In general terms: DSF heats the sample and reads unfolding from a dye or from intrinsic fluorescence.

Experiment [2] concerns the target T2, PARP1 (Homo sapiens, UniProt P09874, DEL678-787).
T2 construct: PARP1 ART fragment [T661-F676 + GSGSGSGG + (D788-W1014)], CFP-fused; with HPF1
The experiment can be described thus: biochemical. The experiment is classed as binding.

The target of experiment [3] is T1, PARP2. Conditions: cited from earlier work.
Experiment [4] addresses PARP1 ART (Homo sapiens) (UniProt P09874). As to conditions: cited from earlier work.
Experiment [5] concerns the target T3, YFP-HPF1 (mCitrine fused to the N-terminus of full length HPF1) (UniProt Q9NWY4 1-346).
T3 construct: Histone PARylation Factor 1 (HPF1), full length; The methods print 'His6 tag- CFP-TEV protease site followed by full length HPF1' for the YFP-tagged HPF1; This is probably a slip for YFP, since the vector is pNIC-YFP; also called Histone PARylation Factor; source: E. coli BL21(DE3), purified (Ni-NTA IMAC, SEC); not shown: mCitrine (YFP), N-terminal, kept
T3 sequence (looked up): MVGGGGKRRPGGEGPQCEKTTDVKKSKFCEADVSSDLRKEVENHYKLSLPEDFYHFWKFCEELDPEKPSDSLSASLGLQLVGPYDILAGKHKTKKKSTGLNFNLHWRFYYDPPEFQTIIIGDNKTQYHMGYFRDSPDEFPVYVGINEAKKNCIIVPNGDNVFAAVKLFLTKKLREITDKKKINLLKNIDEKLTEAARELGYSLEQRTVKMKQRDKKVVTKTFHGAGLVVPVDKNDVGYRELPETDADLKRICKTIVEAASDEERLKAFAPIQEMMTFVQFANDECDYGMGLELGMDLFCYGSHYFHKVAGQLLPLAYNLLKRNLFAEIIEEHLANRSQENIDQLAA
In words: FRET or BRET; in solution; constant 400 nM CFP-PARP2 mixed with YFP-HPF1 250 nM to 10.5 µM, first mixed at high concentration in presence of Olaparib, salt backfilled; EmFRET by the method of Song et al.; 10 µl, 384-well plates, 4 replicates, 3 independent experiments. Conditions: both partners purified. A general note: BRET reads energy transfer from a luciferase to a nearby fluorophore.

Experiment [6] has as its target B1. The experiment can be described thus: FRET or BRET; competition of the FRET pair (400 nM CFP-PARP2, 800 nM YFP-HPF1) with increasing unlabeled HPF1 whose stock adds salt; rFRET read-out; apparent IC50; 20 µl, 384-well plates, 4 replicates. Conditions: both partners purified.
Experiment [7] concerns the target B1. The experiment can be described thus: FRET or BRET; competition of the FRET pair (CFP-PARP2, YFP-HPF1) with desalted (buffer-exchanged) unlabeled HPF1; rFRET read-out; HPF1 aggregated at high concentrations without salt. Conditions: both partners purified.

T2 sequence (P09874 788-1014, stated change not applied, other chains not shown): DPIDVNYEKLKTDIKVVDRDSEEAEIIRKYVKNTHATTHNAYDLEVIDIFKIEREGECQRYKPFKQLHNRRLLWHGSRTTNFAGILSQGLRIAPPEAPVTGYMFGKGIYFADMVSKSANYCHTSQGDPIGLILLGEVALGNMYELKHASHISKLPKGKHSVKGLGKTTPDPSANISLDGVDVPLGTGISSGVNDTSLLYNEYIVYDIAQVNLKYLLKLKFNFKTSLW
PARP1 ART (Homo sapiens), sequence (P09874 788-1014): as the sequence (P09874 788-1014, stated change not applied, other chains not shown) above

On to `CC(C)=CC[C@@H](OC(=O)C=C(C)C)C1=CC(=O)c2c(O)ccc(O)c2C1=O` [Dimethylacrylshikonin], for which the IC50 (commonly the concentration needed to halve the response being measured) in experiment [1] came out at 15.7 µM; in experiment [2], 29.3 µM.

For the molecule `CC(C)=CC[C@H](O)C1=CC(=O)c2c(O)ccc(O)c2C1=O` [Alkannin], the IC50 in experiment [1] is 21.2 µM; in experiment [2], 16.2 µM. For the molecule HPF1 (from UniProt Q9NWY4), the Kd – broadly, the free concentration of one partner at which half of the binding sites on the other are occupied at equilibrium, for simple one-to-one binding – in experiment [3] is 3 µM; in experiment [4], 1.5 µM. For the molecule B1, the Kd in experiment [5] came out at 2 ± 0.18 µM.

B2: unlabeled HPF1 (full length) (natural protein, UniProt Q9NWY4 1-346, looked up)
chain: MVGGGGKRRPGGEGPQCEKTTDVKKSKFCEADVSSDLRKEVENHYKLSLPEDFYHFWKFCEELDPEKPSDSLSASLGLQLVGPYDILAGKHKTKKKSTGLNFNLHWRFYYDPPEFQTIIIGDNKTQYHMGYFRDSPDEFPVYVGINEAKKNCIIVPNGDNVFAAVKLFLTKKLREITDKKKINLLKNIDEKLTEAARELGYSLEQRTVKMKQRDKKVVTKTFHGAGLVVPVDKNDVGYRELPETDADLKRICKTIVEAASDEERLKAFAPIQEMMTFVQFANDECDYGMGLELGMDLFCYGSHYFHKVAGQLLPLAYNLLKRNLFAEIIEEHLANRSQENIDQLAA
notes: Histone PARylation Factor 1 (HPF1), full length, without fluorescent protein; also called unlabelled full length HPF1; desalted unlabeled HPF1
For the molecule B2, the half-inhibitory concentration (IC50) in experiment [6] came to 1.5 µM; in experiment [7], 24 µM.
